The series in a line: amyloid nucleation score (Sup35N fusion, yeast selection) (log enrichment); library NNK1; higher = more nucleation; inactive = no reads after selection. In a few lines:
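Growth for 7 days at 30°C on medium lacking adenine and uracil followed a 24-hour induction with 100 μM copper sulfate of psi-negative yeast expressing peptides of 20 random codons fused to Sup35N. Input and output plasmid inserts were sequenced with Illumina, and sequences with under 100 input reads were excluded. Nucleation score is the DiMSum log enrichment of output over input reads, centred on the mode score of non-aggregating sequences.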

± gives the uncertainty stated by the source.

The substance SCARFITTNNQDSRLVASSN gave an amyloid nucleation score of -0.718 ± 0.77.

For LTWHRLSISHTVAYLSTDSI, the amyloid nucleation score entry is “inactive”.

Regarding FSSCRPMIYLRCTEYNG, the amyloid nucleation score was -0.41 ± 1.9.

RSIMWNLFHDF showed an amyloid nucleation score of 0.789 ± 0.51.

With FPSLFFLLA, the amyloid nucleation score result is “inactive”.

VYEYFRLAGGAIQIAGIPVA had an amyloid nucleation score of -0.002 ± 0.72.

As for QVRSSDSGLVNHFVNE, the amyloid nucleation score entry is “inactive”.

Substance QVRGTEVPVSIAVGLGTSRL showed an amyloid nucleation score of 1.05 ± 0.66.

FWSLYD yielded an amyloid nucleation score of 0.003 ± 0.4.

With RASILCA, the amyloid nucleation score amounted to 0.268 ± 0.66.

In turn, ECCYWPREK showed an amyloid nucleation score of 0.422 ± 0.32.

Turning to FASVDTRETSSGMGGISKTG, the amyloid nucleation score is -0.742 ± 0.56.

Consider LFFRIYDHCNEHEKCVV, for which the amyloid nucleation score entry is “inactive”.

For the substance LLGAR, the amyloid nucleation score amounted to 0.272 ± 0.79.

Regarding HSAALWIVWR, the amyloid nucleation score is -0.358 ± 0.62.

Turning to SITADLGHNSVALGVALLVI, the amyloid nucleation score is -0.057 ± 1.7.

Consider TAESQAKQLSSNRKVGLTPS, for which the amyloid nucleation score stood at 0.549 ± 0.27.

GNLVCGCVVLQIMHIERGMA yielded an amyloid nucleation score of 7.481 ± 0.046.

With YVPMRETGCRDSTYIEWFWY, the amyloid nucleation score is -0.057 ± 0.24.

Substance IATGMWLYVSLVTPQHSLVN had an amyloid nucleation score of 0.101 ± 0.49.

In turn, DMTNAVCTRLNFIRLSTLMK gave an amyloid nucleation score of 0.041 ± 0.32.

Take NVNHSPSGMARRGSHRYKNS: the amyloid nucleation score is -0.218 ± 0.34.

As to CQIPVFENYFLHLGWSYAPL, the amyloid nucleation score stood at 0.224 ± 1.4.

For TDADYTPHVQSVPYYAHLII, the amyloid nucleation score was 3.88 ± 0.14.

With MLPQSSSRQLRVGCASLCNM, the amyloid nucleation score was -0.148 ± 0.6.

MVDSVMD displayed an amyloid nucleation score of -0.21 ± 0.79.

DRLVDTNYRASGYPVRYMVS showed an amyloid nucleation score of -1.31 ± 0.78.

As for TPLKEHLLNVVRMLGKIDCD, the amyloid nucleation score stood at 0.177 ± 0.42.

DSKPVIILR registered an amyloid nucleation score of -0.516 ± 0.27.

In turn, PASSCAVVELGMKVGEGGIP showed an amyloid nucleation score of -0.386 ± 0.95.

Take NIGIRI: the amyloid nucleation score came out at 0.095 ± 0.39.

The substance YFPGVSRGQVDEPVYLCCQR showed an amyloid nucleation score of 0.068 ± 0.57.

CLNVYNLFMSLPGVAAPPMV had an amyloid nucleation score of 6.9 ± 0.085.

The substance GWYFPILRDLRNVGGVF yielded an amyloid nucleation score of -0.677 ± 1.1.

In turn, RPGVGAVRSHSAGRMGGYGD gave an amyloid nucleation score of -0.057 ± 1.7.

In turn, QRSNRGLPYKSRDGI had an amyloid nucleation score of 0.153 ± 0.39.

NRHVSRRRHSEISLVRKGGA returned an amyloid nucleation score of -0.313 ± 0.33.

With IMKLYPLRQSG, the amyloid nucleation score amounted to 0.453 ± 1.2.

In turn, IGTSFVYNYFDHFLK had an amyloid nucleation score of 5.59 ± 0.062.

DPSPLR gave an amyloid nucleation score of -0.827 ± 2.4.

The substance WMTTEIRRAIIEIRSVLWTS gave an amyloid nucleation score of 0.33 ± 0.55.

As for TVSKLSCYNVVDPTIWNLSD, the amyloid nucleation score was 0.236 ± 0.69.

NGSVTNNKNHPFVDYGVRHE had an amyloid nucleation score of -0.468 ± 0.36.

IEGMCGDMVMTYYIFLDSCG had an amyloid nucleation score of 1.07 ± 0.36.

Consider MSLNRDNDYSKLLFGSKVSQ, for which the amyloid nucleation score is 0.477 ± 0.43.

Turning to NSVHWTASGSDSIPTAIESR, the amyloid nucleation score turned out to be 1.58 ± 0.2.

Regarding YGASI, the amyloid nucleation score came out at 0.136 ± 0.47.

Take TTYRCNVKYQYFMFNDIEFF: the amyloid nucleation score worked out at 3.54 ± 0.21.

On to SVTWFIYAWWFLGGSL, for which the amyloid nucleation score was -0.921 ± 2.4.

For SQLNCIDRTMGYDDRMEIRS, the amyloid nucleation score is 0.014 ± 0.42.

VWSKVLGSGRWSVVRGRAWR yielded an amyloid nucleation score of 1.63 ± 0.21.

Consider MFNKVSLSVWASFVWKIIIH, for which the amyloid nucleation score is -0.654 ± 0.83.

TPGNVG showed an amyloid nucleation score of 0.514 ± 0.26.

With YVWIRIVVVLVRRMCNTDTQ, the amyloid nucleation score result is “inactive”.

FWNLVF displayed an amyloid nucleation score of 1.36 ± 0.64.

In turn, LTCFVISVGTSSLIIDFWI gave an amyloid nucleation score of -0.647 ± 0.39.

For LELSKTISMPVSMNRFWVIR, the amyloid nucleation score was -1.39 ± 1.2.

Substance KISCIISWLYDFIIKLAFFT yielded an amyloid nucleation score of -0.931 ± 0.68.

LCALG displayed an amyloid nucleation score of -0.434 ± 1.2.

SCLNNKSPSLI yielded an amyloid nucleation score of -0.342 ± 0.25.

On to GIYSFGLCVGDIS, for which the amyloid nucleation score is -0.623 ± 0.34.

In turn, TTCGCKMHVSAHR came in with an amyloid nucleation score of 0.425 ± 1.1.

Turning to LLLLHLWLALRGLSDCSSHV, the amyloid nucleation score amounted to 0.626 ± 0.87.

In turn, CCRSRLLIITRTVSTAGDSR displayed an amyloid nucleation score of -0.54 ± 1.3.

For LTGFCHFYGSIFTSYMKSL, the amyloid nucleation score result is “inactive”.

Substance FRNCVF had an amyloid nucleation score of -0.141 ± 0.49.

The substance YVDIPVVVS registered an amyloid nucleation score of 0.235 ± 0.32.

On to SDDLGE, for which the amyloid nucleation score is -0.301 ± 0.39.

As to LVFTNTLSTIFNNLHCYMWE, the amyloid nucleation score worked out at 4.49 ± 0.12.

The substance IQGGKNYRKQDHTRHVTTGT came in with an amyloid nucleation score of -1.37 ± 2.4.

In the case of FDLWLVYVRLPGSHDLDLRA, the amyloid nucleation score was 0.61 ± 0.65.

In turn, AWSLTSTHFG had an amyloid nucleation score of 0.249 ± 0.69.

On to SLESS, for which the amyloid nucleation score was determined as 0.642 ± 0.62.

As for RILRCNPLLCRNSACTGIGA, the amyloid nucleation score was 0.742 ± 0.75.

The substance YSRNNIIHFRFISALLPEEV came in with an amyloid nucleation score of 0.683 ± 0.37.

IFLYDRLNGDPFSSRW registered an amyloid nucleation score of 0.729 ± 0.9.

Substance RAGTFTVSTQGPS displayed an amyloid nucleation score of 0.268 ± 0.28.

SFLKVGFL registered an amyloid nucleation score of -0.399 ± 1.1.

With CTFILVLHLLHINTDHIMSA, the amyloid nucleation score was -0.176 ± 1.1.

Substance VSANICNRIVDGHFSLFYLN registered an amyloid nucleation score of -0.73 ± 0.37.

TIIVDDGWRAYSRLS returned an amyloid nucleation score of 0.22 ± 0.71.

Consider SMSCVVHRGSSASCWMFYRN, for which the amyloid nucleation score is 0.784 ± 0.37.

As for VATYLLDHVYLNSCQSHCAM, the amyloid nucleation score is 1 ± 0.35.

Regarding RHIVFDRPSISFWLKSRKRR, the amyloid nucleation score amounted to 0.501 ± 0.64.

ILFDSHANFVGMSCQYRSGR: the amyloid nucleation score was determined as 5.72 ± 0.1.

VMRVAYNDT returned an amyloid nucleation score of 0.416 ± 0.36.

Regarding SYFFGACCVGMCRLWNLFYS, the amyloid nucleation score was 0.857 ± 0.52.

As to ASFQFSSCMCSLYAVFSRLL, the amyloid nucleation score was found to be 0.759 ± 0.44.

For ISAKH, the amyloid nucleation score is -0.89 ± 0.65.

TVTGIAKFHVVSQANY returned an amyloid nucleation score of -0.3 ± 0.98.

In the case of FMYILYYDMWYACASFR, the amyloid nucleation score entry is “inactive”.

The substance VTLTYNYVRRTHMRRDVVAK gave an amyloid nucleation score of 0.6 ± 0.34.

RASSFAEIPVVSCDGGLVKW had an amyloid nucleation score of -0.129 ± 0.41.

As for LLWTSNIIYMSFAVRNKSVR, the amyloid nucleation score came out at 0.59 ± 0.32.

In the case of TYWYSHINFLYYIASFVWSP, the amyloid nucleation score entry is “inactive”.

AKMYLRTLYTSPLRLPLAPQ showed an amyloid nucleation score of -0.333 ± 1.4.

Turning to CYYSRFHFAPISIMFCVNGG, the amyloid nucleation score amounted to 5.99 ± 0.076.

WTVMVNICLGHCRVLSQLVP had an amyloid nucleation score of 1.79 ± 0.24.

RLCPTVRVQRLMFFPVCPGP gave an amyloid nucleation score of -0.035 ± 0.42.

For TDAQWGIFYDENIYPLDVFC, the amyloid nucleation score is 0.075 ± 0.33.

ALVFSALLVFRCGDCAASKA had an amyloid nucleation score of 4.25 ± 0.062.

For the substance QGKISGNRRSFFWW, the amyloid nucleation score was -0.765 ± 0.44.

On to KLPIAGCYRVINCTVRGE, for which the amyloid nucleation score is -0.008 ± 0.26.

In turn, PLNKSEAESLFKLLTLLDRN came in with an amyloid nucleation score of -1.39 ± 0.46.

In the case of VGLERSWGEAKAVNMQRHGS, the amyloid nucleation score was 0.346 ± 0.81.

CRCSSQLRYMHGRFWFDRSV yielded an amyloid nucleation score of 0.084 ± 0.62.

Turning to IMFYMTVDGCLSVEYIFR, the amyloid nucleation score was -0.704 ± 0.42.

On to RLSLAESAPLVNFVSTALGK, for which the amyloid nucleation score is -0.168 ± 0.93.

For LGIVSCTSQNPNGVDTSIFG, the amyloid nucleation score came to 0.117 ± 1.4.

In turn, TPFVMIKDGKADFVILNVYH gave an amyloid nucleation score of 7.077 ± 0.055.

For the substance DLVTSYWKIEGPILRSGGNM, the amyloid nucleation score was -0.563 ± 0.49.

For the substance SYRGVRIGSGGLMYRGANSF, the amyloid nucleation score result is “inactive”.

As for CFNTRHRVQELRL, the amyloid nucleation score is -0.224 ± 1.7.

STTLQERVYSAPATDLRDWA displayed an amyloid nucleation score of 0.246 ± 0.37.

As for TFTLNFCGLQF, the amyloid nucleation score stood at 7.124 ± 0.059.

In turn, YLLCFWILCFTAVGIFTGFN showed an amyloid nucleation score of 0.456 ± 0.25.

Substance NPWVWTLSIEQGRNE showed an amyloid nucleation score of 0.074 ± 0.34.

For the substance DIILLYSLFADIFISGRIYT, the amyloid nucleation score was -0.13 ± 0.58.

For the substance SRGFDHITFF, the amyloid nucleation score is -0.677 ± 1.2.

Regarding RDNCSLNVYFK, the amyloid nucleation score is 2.9 ± 0.14.

As to GSVCRCSDAPVSFRVGNSVG, the amyloid nucleation score was -0.078 ± 0.27.

As for RSLKMINNYISKLHVLMGFH, the amyloid nucleation score is -0.281 ± 0.76.

As for GYLQR, the amyloid nucleation score came out at 0.158 ± 0.59.

On to ATMSRGFKQ, for which the amyloid nucleation score is 0.834 ± 0.36.

For the substance CRYTMGSNKVALFYGWMHPG, the amyloid nucleation score came out at 0.726 ± 0.66.

Take GKRLQ: the amyloid nucleation score was -0.249 ± 1.2.

In turn, YARGMCWVRVWLNVQVSAWS gave an amyloid nucleation score of 0.398 ± 0.53.

For LFFSYMQLVTNSTCTYLRVF, the amyloid nucleation score was 1.24 ± 0.74.

In turn, VRMVQEMFRRRTLEELAMGA had an amyloid nucleation score of 0.447 ± 0.68.

ILLRSNIFMYFNMTEMPNSC: the amyloid nucleation score was determined as 6.798 ± 0.055.

SVSNTYERE registered an amyloid nucleation score of 0.879 ± 0.68.

As for CIYIWCGVFGSYFGFLVLAA, the amyloid nucleation score was 0.18 ± 0.49.

For TMSFSFF, the amyloid nucleation score amounted to 0.855 ± 0.28.

The substance ASFSLDYSFQMPYILRWFIR had an amyloid nucleation score of 1.03 ± 0.33.

TVSLGVAAVMFPR returned an amyloid nucleation score of 0.95 ± 0.36.

Consider LIDRHSFVRGRIRVSSVVVC, for which the amyloid nucleation score entry is “inactive”.

FVYLR displayed an amyloid nucleation score of 0.98 ± 0.55.

The substance MYCITDEVNRYKCCKTGKEF showed an amyloid nucleation score of 0.634 ± 0.32.

The substance FVGSRRGLARVAEYGWLYHG gave an amyloid nucleation score of -0.464 ± 0.74.

The substance KDGFTSRAWPHMFKSLRSQL displayed an amyloid nucleation score of 1.07 ± 0.63.

The record behind these values is the supplement of paper PMC12042874.
